Laboratory results published in patent US20230390362A1, “USE OF TRIGONAL AGONIST HAVING ACTIVITIES TO ALL OF GLUCAGON, GLP-1, AND GIP RECEPTORS IN TREATMENT OF SEQUELAE FOLLOWING RESPIRATORY INFECTIOUS DISEASES” (HANMI PHARM. CO., LTD., priority 2020, published 2023).
Positions of bridges follow the written chain, without caps; N, C: chain ends. Non-standard residues stand in square brackets, D forms with d. No end group written: not given here. *: point of attachment. Acetyl(2-(4-imidazolyl)) = O=C(Cc1c[nH]cn1)*; Aib = CC(C)(N)C(=O)O

T1: human GIP receptor (human, UniProt P48546 22-466)
T1 sequence (looked up): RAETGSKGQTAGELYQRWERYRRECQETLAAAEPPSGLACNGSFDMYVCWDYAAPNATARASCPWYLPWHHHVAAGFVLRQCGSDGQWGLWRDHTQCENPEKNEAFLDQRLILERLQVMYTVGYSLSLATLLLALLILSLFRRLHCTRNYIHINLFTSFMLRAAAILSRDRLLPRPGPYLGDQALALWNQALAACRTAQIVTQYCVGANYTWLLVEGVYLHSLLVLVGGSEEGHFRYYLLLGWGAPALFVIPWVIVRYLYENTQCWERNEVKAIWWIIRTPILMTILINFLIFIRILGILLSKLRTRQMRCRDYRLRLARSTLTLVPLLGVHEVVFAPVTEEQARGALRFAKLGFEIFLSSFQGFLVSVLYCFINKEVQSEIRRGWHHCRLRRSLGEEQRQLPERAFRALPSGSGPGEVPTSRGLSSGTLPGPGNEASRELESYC


Assays:
Assay in all cases: cell-based or functional assay
[1] = target: human GLP-1 receptor (human, UniProt P43220 24-463)
[2] = target: human GCG receptor (human, UniProt P47871 26-477)
[3] = target: T1, human GIP receptor

Chain of human GCG receptor (P47871 26-477): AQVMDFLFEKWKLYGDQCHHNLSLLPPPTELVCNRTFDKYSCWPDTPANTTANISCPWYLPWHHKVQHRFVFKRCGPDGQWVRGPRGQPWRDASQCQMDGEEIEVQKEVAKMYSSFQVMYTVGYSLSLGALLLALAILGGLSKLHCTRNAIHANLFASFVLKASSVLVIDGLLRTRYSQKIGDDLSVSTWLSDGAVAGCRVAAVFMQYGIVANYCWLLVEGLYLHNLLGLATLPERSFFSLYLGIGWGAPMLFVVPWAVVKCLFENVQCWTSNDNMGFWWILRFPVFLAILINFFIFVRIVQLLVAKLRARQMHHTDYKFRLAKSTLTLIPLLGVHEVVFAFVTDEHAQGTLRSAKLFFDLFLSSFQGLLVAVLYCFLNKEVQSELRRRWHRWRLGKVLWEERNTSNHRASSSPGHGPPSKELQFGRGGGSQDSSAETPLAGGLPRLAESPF

Binder | In vitro activity relative to native peptide (%), vs. GLP-1 (cAMP EC50) [1] | In vitro activity relative to native peptide (%), vs. Glucagon (cAMP EC50) [2] | In vitro activity relative to native peptide (%), vs. GIP (cAMP EC50) [3]
H[Aib]EGTFTSDYSIAMDEIHQKDFVNWLLAQKC (bridge 16-20) [trigonal agonist of SEQ ID NO: 79] | 41.5% | 4.9% | 1.4%
H[Aib]QGTFTSDVSKYLDGQAAQEFVAWLLKGC [trigonal agonist of SEQ ID NO: 8] | 14.2% | 0.1% | < 0.1%
Y[Aib]QGTFTSDYSKCLDERAAKEFVQWLLDHHPSSGQPPPS (bridge 16-20) [trigonal agonist of SEQ ID NO: 69] | 24.3% | 9.6% | 62.8%
{Acetyl(2-(4-imidazolyl))}-[Aib]EGTFTSDYSIAMDEIHQKDFVNWLLAQC (bridge 15-19) [trigonal agonist of SEQ ID NO: 83] | 47.3% | 1.3% | 0.4%
Y[Aib]QGTFTSDYSKYLDEKAAKDFVQWLLDHHPSSGQPPPSC (bridge 16-20) [trigonal agonist of SEQ ID NO: 77] | 38.7% | 12.2% | 35.5%
{Acetyl(2-(4-imidazolyl))}-[Aib]QGTFTSDYSKCLDEKRAKEFVQWLLDHHPSSGQPPPS (bridge 15-19) [trigonal agonist of SEQ ID NO: 74] | 12.9% | 0.9% | 1%
Y[Aib]QGTFTSDCSKYLDERAAKDFVQWLLDHHPSSGQPPPS (bridge 16-20) [trigonal agonist of SEQ ID NO: 72] | 11.5% | 1% | 1.6%
{Acetyl(2-(4-imidazolyl))}-[Aib]QGTFTSDYSKYLDECRAKEFVQWLLDHHPSSGQPPPS (bridge 15-19) [trigonal agonist of SEQ ID NO: 73] | 22.6% | 5.4% | 3%
Y[Aib]QGTFTSDYSKYLDEKRAKDFVQWLLDHHPSSGQPPPSC (bridge 16-20) [trigonal agonist of SEQ ID NO: 76] | 10.3% | 47.6% | 11.7%
{Acetyl(2-(4-imidazolyl))}-[Aib]QGTFTSDYSKYLDEKRQKEFVNWLLAQC (bridge 15-19) [trigonal agonist of SEQ ID NO: 86] | 28.4% | 0.4% | 0.2%
{Acetyl(2-(4-imidazolyl))}-[Aib]EGTFTSDYSIAMDEIHQKDFVDWLLAEC (bridge 15-19) [trigonal agonist of SEQ ID NO: 84] | 4.2% | < 0.1% | < 0.1%
{Acetyl(2-(4-imidazolyl))}-[Aib]QGTFTSDYSKYLDEKRQKEFVQWLLNTC (bridge 15-19) [trigonal agonist of SEQ ID NO: 81] | 7.8% | 0.3% | < 0.1%
Y[Aib]QGTFTSDYSKYLDERACKDFVQWLLDHHPSSGQPPPS (bridge 16-20) [trigonal agonist of SEQ ID NO: 71] | 90.1% | 12.7% | 94.7%
Y[Aib]QGTFTSDYSKCLDEKAAKEFVQWLLDHHPSSGQPPPS (bridge 16-20) [trigonal agonist of SEQ ID NO: 68] | 27.9% | 8.8% | 107%
H[Aib]QGTFTSDVSKYLDGQAAQEFVAWLLAGC [trigonal agonist of SEQ ID NO: 9] | 32.1% | 0.13% | < 0.1%
Y[Aib]QGTFTSDYSKYLDECAAKDFVQWLLDHHPSSGQPPPS (bridge 16-20) [trigonal agonist of SEQ ID NO: 67] | 28.5% | 46.2% | 39.8%
{Acetyl(2-(4-imidazolyl))}-[Aib]QGTFTSDYSIAMDEIHQKDFVNWLLNTC (bridge 15-19) [trigonal agonist of SEQ ID NO: 87] | 0.9% | < 0.1% | < 0.1%
Y[Aib]QGTFTSDYSKYLDEKAAKEFVQWLLDHHPSSGQPPPSC (bridge 16-20) [trigonal agonist of SEQ ID NO: 75] | 35.1% | 8.5% | 18%
{Acetyl(2-(4-imidazolyl))}-[Aib]QGTFTSDYSKYLDEKRQKEFVQWLLDTC (bridge 15-19) [trigonal agonist of SEQ ID NO: 82] | 9.5% | 1.1% | < 0.1%
{Acetyl(2-(4-imidazolyl))}-[Aib]QGTFTSDYSIAMDEIHQKDFVNWLLAQC (bridge 15-19) [trigonal agonist of SEQ ID NO: 85] | 4.3% | < 0.1% | 0.3%
Y[Aib]QGTFTSDYSKCLDEKRAKDFVQWLLDHHPSSGQPPPS (bridge 16-20) [trigonal agonist of SEQ ID NO: 70] | 15.1% | 71.3% | 64.4%
{Acetyl(2-(4-imidazolyl))}-[Aib]QGTFTSDYSKYLDEKRQKEFVQWLLNTKC (bridge 15-19) [trigonal agonist of SEQ ID NO: 88] | 9.6% | 0.3% | < 0.1%
Y[Aib]QGTFTSDYSKYLDECRAKDFVQWLLDHHPSSGQPPPS (bridge 16-20) [trigonal agonist of SEQ ID NO: 66] | 15.8% | 172% | 17.2%
H[Aib]EGTFTSDYSIAMDEIHQKDFVDWLLAEKC (bridge 16-20) [trigonal agonist of SEQ ID NO: 80] | 8.1% | 0% | 0.1%
